Here are results for eight substances from US20020147133A1.

Experiment [1] concerns the target phosphotyrosine peptide NH2-pYEEI-COOH. As to the kind of experiment: radioactive SH2 domain on an increased amount of pYEEI Affi-Gel beads.
Experiment [2] shares this target. The experiment is described as follows: radioactive SH2 domain (200 nM) on pYEEI Affi-Gel beads, scintillation counting.
For experiment [3], the target named is SH2 domain of the tyrosine kinase Fyn (UniProt P06241). As to the kind of experiment: competition with pYEEI beads for radioactive Fyn SH2 domain (200 nM), no FKBP12.
For experiment [4], the target named is recombinant FKBP52 with a tag of six histidine residues at its N-terminus (UniProt Q02790). The experiment is described as follows: isothermal titration calorimetry, 25 C. For orientation: In ITC the heat of successive injections is recorded.
Experiment [5] deals with SH2 domain of the tyrosine kinase Fyn (UniProt P06241). As to the kind of experiment: isothermal titration calorimetry, 25 C.
The target of a further experiment is recombinant FKBP12 (UniProt P62942). The experiment is described as follows: isothermal titration calorimetry, 25 C.
In experiment [6] the target is SH2 domain of the tyrosine kinase Fyn (UniProt P06241). As to the kind of experiment: competition of free pYEEI with pYEEI beads for radioactive Fyn SH2 domain (200 nM).
Experiment [7] has the same target. The experiment is described as follows: competition with pYEEI beads for radioactive Fyn SH2 domain (200 nM), FKBP52 at 4.5 uM.
Experiment [8] has the same target. As to the kind of experiment: ratio of IC50 values, competition with pYEEI beads.
Experiment [9] has the same target. The experiment is described as follows: isothermal titration calorimetry, Fyn SH2 domain binding to the FKpYEEI-FKBP52 complex.
Experiment [10] has the same target. The experiment is described as follows: ratio of Kd values, isothermal titration calorimetry.
For experiment [11] the target is unchanged. The experiment is described as follows: isothermal titration calorimetry, Fyn SH2 domain binding to the SLFpYEEI-FKBP12 complex.
The target is the same in experiment [12]. As to the kind of experiment: competition with pYEEI beads for radioactive Fyn SH2 domain (200 nM), FKBP12 at 20 uM.
Experiment [13] has the same target. The experiment is described as follows: competition with pYEEI beads for radioactive Fyn SH2 domain (200 nM), no FKBP52.

Chain of SH2 domain of the tyrosine kinase Fyn (P06241 143-248): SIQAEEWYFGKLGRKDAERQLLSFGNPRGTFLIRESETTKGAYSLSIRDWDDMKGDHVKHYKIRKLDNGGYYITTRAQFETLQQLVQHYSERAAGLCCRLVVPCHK
Chain of recombinant FKBP52 with a tag of six histidine residues at its N-terminus (Q02790 whole entry, the tested form may be a part): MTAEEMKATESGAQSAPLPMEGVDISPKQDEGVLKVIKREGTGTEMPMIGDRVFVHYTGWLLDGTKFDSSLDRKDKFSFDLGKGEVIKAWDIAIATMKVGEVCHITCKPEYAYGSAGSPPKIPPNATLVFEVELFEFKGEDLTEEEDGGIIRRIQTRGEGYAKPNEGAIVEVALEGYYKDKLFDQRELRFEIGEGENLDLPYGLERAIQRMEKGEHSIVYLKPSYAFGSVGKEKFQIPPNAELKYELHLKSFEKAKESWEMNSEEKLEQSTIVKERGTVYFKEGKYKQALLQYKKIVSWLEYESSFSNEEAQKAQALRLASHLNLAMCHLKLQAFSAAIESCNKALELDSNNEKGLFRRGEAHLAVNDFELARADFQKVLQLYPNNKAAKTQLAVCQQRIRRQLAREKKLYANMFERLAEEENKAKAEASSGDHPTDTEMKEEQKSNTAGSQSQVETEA
Chain of N-terminal SH2 domain of PLC (P19174 550-657): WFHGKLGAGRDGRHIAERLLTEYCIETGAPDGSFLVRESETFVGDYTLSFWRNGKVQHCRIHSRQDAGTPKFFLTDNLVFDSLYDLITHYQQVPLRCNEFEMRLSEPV
Chain of recombinant FKBP12 (P62942 whole entry, the tested form may be a part): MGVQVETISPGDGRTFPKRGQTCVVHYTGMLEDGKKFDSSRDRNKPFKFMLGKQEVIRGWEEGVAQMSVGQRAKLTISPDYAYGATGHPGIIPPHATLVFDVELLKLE

Regarding N-terminal SH2 domain of PLC, the percent of SH2 domain bound to the beads was 40% in [1] and 25% in experiment [2].
One may read the IC50 as the concentration at which inhibition is half-maximal. By Kd is commonly meant the equilibrium constant for the complex coming apart. Consider “SLFpYEEI (SLF coupled to the N-terminus of the pYEEI peptide)”, for which, in experiment [3], the half-maximal inhibitory concentration (IC50) came to 250 nM. For the same substance, the results for the Kd (in experiment [4]; in experiment [5]; in the experiment with recombinant FKBP12) were 5000 nM, 183 nM and 61 nM, respectively.
Consider phosphotyrosine peptide NH2-pYEEI-COOH, for which, in experiment [6], the IC50 is 1100 nM.
Regarding “FKpYEEI-FKBP52 complex (binary complex of FKBP52 and FKpYEEI) (from UniProt Q02790 1-459)”, the IC50 in experiment [7] came out at 250 nM. For the same substance, in experiment [8], the fold enhancement of affinity against FKpYEEI alone was found to be 3 fold and the fold enhancement of affinity against pYEEI is 4.4 fold. The same substance gave a Kd in [9] of 130 nM. Further, the fold enhancement of Kd against FKpYEEI alone in experiment [10] was determined as 4 fold.
In experiment [11], “SLFpYEEI-FKBP12 complex (binary complex of SLFpYEEI and FKBP12) (from UniProt P62942 1-108)” registered a dissociation constant (Kd) of 1500 nM. The 50% inhibitory concentration (IC50) in experiment [12] worked out at 1500 nM. Besides, the fold reduction of affinity against SLFpYEEI alone in [8] was found to be 6 fold.
Turning to “FKpYEEI (pYEEI peptide chemically linked to FK506)”, the Kd in experiment [4] is 150 nM; in [5], 520 nM; with recombinant FKBP12, 45 nM. In experiment [13], the half-maximal inhibitory concentration (IC50) came out at 750 nM.
In the case of “SH2 domain of the tyrosine kinase Lck (from UniProt P06239 120-226)”, the percent of SH2 domain bound to the beads in experiment [1] was 25%; in experiment [2], 15%.
Turning to “SH2 domain of the tyrosine kinase Fyn (from UniProt P06241 143-248)”, the percent of SH2 domain bound to the beads in experiment [1] is 80%; in [2], 65%.
